How the values were obtained:
Format in all cases: cell-based
human iPSCs [1] = assay: Differentiation of human iPSCs into mesoderm (qPCR/immunocytochemistry of MIXL1, BRACHYURY); settings: 100 ng/ml activin A and 3 μM CHIR99021 used together; iPSC line 87iCTR-n3; peak at day 2
Experimental: Human iPSCs were split onto Matrigel-coated plates, and cultured in mTeSR®1 medium until 80% confluent. Three intermediate protocols were compared, according to Mae et al. (2013), Xia et al. (2013), and Takasato et al. (2014). […]
Total cellular RNA was isolated using Qiagen RNeasy Mini kit according to the manufacturer's recommendations (Qiagen). Of RNeasy-treated total RNA (1 μg) was used for cDNA synthesis using the Quantitect Reverse Transcription Kit for cDNA synthesis for PCR (Qiagen). […]

human iPSCs [2] = assay: Differentiation of mesoderm into intermediate mesoderm (IM) (marker expression); settings: for transient upregulation of BRACHYURY and MIXL1 seen during gastrulation: BMP4 vs BMP7 treatment, 87iCTR-n3 iPSC line
Experimental: (§1) Human iPSCs were split onto Matrigel-coated plates, and cultured in mTeSR®1 medium until 80% confluent. Three intermediate protocols were compared, according to Mae et al. (2013), Xia et al. (2013), and Takasato et al. (2014). The final protocol that achieved best efficiency and results for creating fallopian tube epithelium was a modified Mae et. al., (2013) protocol, as defined below. • Day 0-2: Cells were exposed to 100 ng/ml human recombinant activin A (Stemgent) and 3 μM CHIR99021 (Cayman Chemicals) to differentiate towards mesoderm, and cultured in DMEM/F12 (Gibco)+Glutamax (Invitrogen) supplemented with 500 U/ml penicillin streptomycin (Gibco) and 2% fetal bovine serum (FBS) with addition of 10 μM ROCK inhibitor Y-27632 (Stemgent). • Day 2-4: To differentiate towards IM, media was changed to DMEM/F12 (Gibco)+Glutamax (Invitrogen) supplemented with 0.1 mM non-essential amino acids (Invitrogen), 500 u/ml penicillin/streptomycin (Gibco), 0.55 mM 2-mercaptoethanol, 10% KOSR (Invitrogen), 100 ng/ml BMP4 (R&D Systems), 3 μM CHIR99021 (Cayman Chemicals), and 10 μM ROCK inhibitor Y-27632 (Stemgent). • Day 4-6: Spheroids were collected from wells and re-plated per methods described below. To differentiate the spheroid cultures towards Müllerian epithelium, media was changed to Fallopian tube media (FTM) containing DMEM/F12 (Gibco)+500 u/ml penicillin/streptomycin (Gibco), and 10 ml reconstituted Ultroser G (15950-017, Pall) and 10 μM ROCK inhibitor Y-27632 (Stemgent). To the FTM, 100 ng/ml human recombinant WNT4 (R&D Systems) with or without 3 μM CHIR99021(Cayman Chemicals), 100 ng/ml human recombinant WNT3A (R&D Systems) with or without 3 μM CHIR99021 (Cayman Chemicals) were added. • Day 6-8: FTM was changed and 20 ng/ml human recombinant Follistatin (Peprotech), 1 ng/ml estrogen and 33 ng/ml progestrone were added.
(§2) Total cellular RNA was isolated using Qiagen RNeasy Mini kit according to the manufacturer's recommendations (Qiagen). Of RNeasy-treated total RNA (1 μg) was used for cDNA synthesis using the Quantitect Reverse Transcription Kit for cDNA synthesis for PCR (Qiagen). Real-time PCR was performed using the SYBR Green Supermix (BioRad). The levels of expression of respective genes were normalized to corresponding GAPDH values and are shown as fold change relative to the value of the control sample. All sample analyses were carried out in triplicate.
(§3) Monolayer cultures were grown on poly-1-lysine and ornithine coated glass coverslips. Cells were washed once with phosphate buffered saline (PBS) and fixed with 4% paraformaldehyde (PFA) in 1× PBS for 20 minutes and permeabilized in PBS containing 0.5% Triton X-100 (PBS-T) (Sigma) for 5 minutes at room temperature. […]

[3] = tested on: intermediate mesoderm (IM) cells derived from human iPSCs; assay: Differentiation of intermediate mesoderm into Müllerian duct / FTE precursor vs nephric duct (marker expression); settings: for expression of kidney markers SIX2 and FOXD1: qPCR, relative to iPSC day 0, 87iCTR-n3
Experimental: as §1, §2, §3

Row | Molecule | mesoderm induction (MIXL1 and BRACHYURY) (human iPSCs [1]) | transient upregulation of BRACHYURY and MIXL1 seen during gastrulation (human iPSCs [2]) | expression of kidney markers SIX2 and FOXD1 [3] | other results
1 | Cc1c[nH]c(-c2cnc(NCCNc3ccc(C#N)cn3)nc2-c2ccc(Cl)cc2Cl)n1 [CHIR99021, reference compound] | rapidly and efficiently specified human iPSCs (line 87iCTR-n3) into mesoderm | – | – | –
2 | BMP7: Bone Morphogenetic Protein used in the Mae et al (2013) protocol (protein, UniProt P18075 293-431, looked up) Bone morphogenetic protein 7: STGSKQRSQNRSKTPKNQEALRMANVAENSSSDQRQACKKHELYVSFRDLGWQDWIIAPEGYAAYYCEGECAFPLNSYMNATNHAIVQTLVHFINPETVPKPCCAPTQLNAISVLYFDDSSNVILKKYRNMVVRACGCH | – | not recapitulated | – | –
3 | activin A: human recombinant activin A (Stemgent), growth factor (protein, UniProt P08476 311-426, looked up, Inhibin beta A chain activin A homodimer) Inhibin beta A chain: GLECDGKVNICCKKQFFVSFKDIGWNDWIIAPSGYHANYCEGECPSHIAGTSGSSLSFHSTVINHYRMRGHSPFANLKSCCVPTKLRPMSMLYYDDGQNIIKKDIQNMIVEECGCS | rapidly and efficiently specified human iPSCs (line 87iCTR-n3) into mesoderm | – | – | –
4 | WNT3A: human recombinant WNT3A (R&D Systems) (protein, UniProt P56704 19-352, looked up) Protein Wnt-3a: SYPIWWSLAVGPQYSSLGSQPILCASIPGLVPKQLRFCRNYVEIMPSVAEGIKIGIQECQHQFRGRRWNCTTVHDSLAIFGPVLDKATRESAFVHAIASAGVAFAVTRSCAEGTAAICGCSSRHQGSPGKGWKWGGCSEDIEFGGMVSREFADARENRPDARSAMNRHNNEAGRQAIASHMHLKCKCHGLSGSCEVKTCWWSQPDFRAIGDFLKDKYDSASEMVVEKHRESRGWVETLRPRYTYFKVPTERDLVYYEASPNFCEPNPETGSFGTRDRTCNVSSHGIDGCDLLCCGRGHNARAERRREKCRCVFHWCCYVSCQECTRVYDVHTCK | – | – | increased expression | decreased levels of WT1 and OVGP1 compared to WNT4 treatment ([3]; WNT3A treatment (nephric duct differentiation) vs WNT4): ~10 fold
5 | BMP4: BMP4 growth factor (R&D Systems) (protein, UniProt P12644 293-408, looked up) Bone morphogenetic protein 4: SPKHHSQRARKKNKNCRRHSLYVDFSDVGWNDWIVAPPGYQAFYCHGDCPFPLADHLNSTNHAIVQTLVNSVNSSIPKACCVPTELSAISMLYLDEYDKVVLKNYQEMVVEGCGCR | – | expected transient upregulation | – | mesoderm differentiation into IM, based on expression of early IM markers PAX2, OSR1 and GATA3 (human iPSCs [2]; 100 ng/ml, day 2-4, compared with BMP7 of Mae et al protocol): optimal mesoderm differentiation into IM; expression of endoderm-marker SOX17 and ectoderm-marker NCAM (human iPSCs [2]; differentiation protocol that included BMP4, 87iCTR-n3): no to very low detectable expression levels
6 | WNT4: human recombinant WNT4 (R&D Systems) (protein, UniProt P56705 23-351, looked up) Protein Wnt-4: SNWLYLAKLSSVGSISEEETCEKLKGLIQRQVQMCKRNLEVMDSVRRGAQLAIEECQYQFRNRRWNCSTLDSLPVFGKVVTQGTREAAFVYAISSAGVAFAVTRACSSGELEKCGCDRTVHGVSPQGFQWSGCSDNIAYGVAFSQSFVDVRERSKGASSSRALMNLHNNEAGRKAILTHMRVECKCHGVSGSCEVKTCWRAVPPFRQVGHALKEKFDGATEVEPRRVGSSRALVPRNAQFKPHTDEDLVYLEPSPDFCEQDMRSGVLGTRGRTCNKTSKAIDGCELLCCGRGFHTAQVELAERCSCKFHWCCFVKCRQCQRLVELHTCR | – | – | lack of expression | expression of fallopian tube precursor (Müllerian duct) markers WT1 and OVGP1 ([3]; qPCR and immunocytochemistry, 100 ng/ml WNT4 on day 4 followed by 20 ng/ml Follistatin on day 6, WNT4/CHIR compared to WNT4 alone): upregulated expression over time

From patent US11414648B2, “Methods and compositions for production of fallopian tube epithelium” (CEDARS-SINAI MEDICAL CENTER, priority 2017, dated 2022)
